Columns and labels:
DN kidney [1] = assay: Advanced diabetic nephropathy, captopril and THR–123 combination; type: in vivo, mice; settings: eight months DN
DN kidney [2] = assay: Streptozotocin–induced diabetic nephropathy; type: in vivo, CD–1 mice
TECs (NP–1 cells) = assay: Reversal of TGF-β and EGF induced EMT in TECs; type: cell-based; settings: TECs after 48 hours of incubation with TGF-β and EGF
[3] = system: tubular epithelial cells (TECs; NP–1 cells); assay: Hypoxia induced apoptosis of TECs; type: cell-based; settings: Annexin V; NP–1 cells in hypoxia

In the case of `C[C@H](CS)C(=O)N1CCC[C@H]1C(=O)O` [CPR, captopril], the EMT program (DN kidney [1]) is reported as “inhibited” and the macrophage infiltration (DN kidney [1]; Mac–1) is reported as “inhibited macrophage infiltration”.

B1: BMP7: Bone morphogenetic protein–7, member of the TGF-β superfamily, natural ligand of Alk3 (protein, UniProt P18075 293-431, looked up)
Bone morphogenetic protein 7: STGSKQRSQNRSKTPKNQEALRMANVAENSSSDQRQACKKHELYVSFRDLGWQDWIIAPEGYAAYYCEGECAFPLNSYMNATNHAIVQTLVHFINPETVPKPCCAPTQLNAISVLYFDDSSNVILKKYRNMVVRACGCH
For B1, the mesangium expansion (DN kidney [2]; STZ–induced six month DN, BMP7 1–6 months, THR–123 5–6 months treatment) was “inhibited mesangium expansion”, the “induction of an EMT program” value (DN kidney [2]; six months DN) was “inhibited induction of an EMT program” and the “renal dysfunction (blood urea nitrogen)” value (DN kidney [2]; six months DN) was “significantly reversed renal dysfunction”. For the same molecule, the macrophage infiltration (DN kidney [2]; six months DN, Mac–1, F4/80) was “reduced macrophage infiltration”, the “reversal of TGF-β–induced EMT” value (TECs (NP–1 cells)) was “reversed” and the “hypoxia induced apoptosis of TECs” value [3] was “inhibited”.

From publication PMC3998727 (Nature medicine, 2012)
